Read-outs that look alike come from different tables or passages of the source.
T1: 3FLAG-Gef3 (S. pombe, UniProt O59679 1-525)
T1 sequence: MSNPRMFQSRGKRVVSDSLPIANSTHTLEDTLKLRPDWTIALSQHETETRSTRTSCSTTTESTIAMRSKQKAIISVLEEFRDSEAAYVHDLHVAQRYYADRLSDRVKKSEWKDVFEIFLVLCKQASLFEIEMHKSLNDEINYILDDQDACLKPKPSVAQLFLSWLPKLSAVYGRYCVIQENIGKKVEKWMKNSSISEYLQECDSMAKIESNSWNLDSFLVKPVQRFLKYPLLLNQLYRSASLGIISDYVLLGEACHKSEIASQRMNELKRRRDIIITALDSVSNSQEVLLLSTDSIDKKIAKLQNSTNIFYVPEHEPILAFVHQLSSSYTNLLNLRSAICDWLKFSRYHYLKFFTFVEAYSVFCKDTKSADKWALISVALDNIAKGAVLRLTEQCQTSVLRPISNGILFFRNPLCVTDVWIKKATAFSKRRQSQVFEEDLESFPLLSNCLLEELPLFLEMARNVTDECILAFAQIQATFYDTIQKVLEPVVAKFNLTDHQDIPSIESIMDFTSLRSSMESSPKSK

B1: GST-Rho4 (enzyme)
chain: MSAFKKSGSKSETSKKLVVVGDGGCGKTCLLIVFSSGTFPERYVPTVFENYITDITYGPNSKVIELALWDTAGQEEYDRLRPLSYPNSNVILLCFSIDCPASLNNVTEKWYPEVQHFCPRTPIVLVGLKADLRKDRNATEVLRTQGLTPVTYQQAQSVALSMNAPYVECSAKENTGVNEVFQLAVGLTIKKSFSFSKKSCVIL
B2: hexahistidine (6His)-tagged Gef3 (natural protein)
chain: MSNPRMFQSRGKRVVSDSLPIANSTHTLEDTLKLRPDWTIALSQHETETRSTRTSCSTTTESTIAMRSKQKAIISVLEEFRDSEAAYVHDLHVAQRYYADRLSDRVKKSEWKDVFEIFLVLCKQASLFEIEMHKSLNDEINYILDDQDACLKPKPSVAQLFLSWLPKLSAVYGRYCVIQENIGKKVEKWMKNSSISEYLQECDSMAKIESNSWNLDSFLVKPVQRFLKYPLLLNQLYRSASLGIISDYVLLGEACHKSEIASQRMNELKRRRDIIITALDSVSNSQEVLLLSTDSIDKKIAKLQNSTNIFYVPEHEPILAFVHQLSSSYTNLLNLRSAICDWLKFSRYHYLKFFTFVEAYSVFCKDTKSADKWALISVALDNIAKGAVLRLTEQCQTSVLRPISNGILFFRNPLCVTDVWIKKATAFSKRRQSQVFEEDLESFPLLSNCLLEELPLFLEMARNVTDECILAFAQIQATFYDTIQKVLEPVVAKFNLTDHQDIPSIESIMDFTSLRSSMESSPKSK

Columns and labels:
Assay in all cases: pull-down
3FLAG-Gef3 [1] = target: T1, 3FLAG-Gef3
[2] = target: B2
3FLAG-Gef3 [3] = target: T1, 3FLAG-Gef3; remark: listed apart in the source
GST-Rho4 = target: B1

Row | Binder | binding result (3FLAG-Gef3 [1]) | binding result [2] | binding result (3FLAG-Gef3 [3]) | fold more pulled down than by the GST control (GST-Rho4) [times]
1 | GST-Rho2 (enzyme) MLQSQPIRRKLVVVGDGACGKTSLLSVFTLGYFPTEYVPTVFENYVSDCRVDGKSVQLALWDTAGQEEYERLRPMSYAKAHIILVGFAIDSPDSLENVSTKWIEEINTLCPNVPFILVGMKADLRSDPVAIEEMRRRNQNFVKSQQAELVAQRIGARKYMECSSLTGDGVDDVFEAATRAALTVRDSENDKSSTKCCIIS | binds |  |  | 
2 | GST-Rho1 (enzyme) MATELRRKLVIVGDGACGKTCLLIVFSKGTFPEVYVPTVFENYVADVEVDGRHVELALWDTAGQEDYDRLRPLSYPDSHVILICFAVDSPDSLDNVQEKWISEVLHFCSSLPILLVACKADLRNDPKIIEELSKTNQHPVTTEEGQAVAQKIGAYKYLECSAKTNEGVREVFESATRAAMLKHKPKVKPSSGTKKKKRCILL |  | binds | binds | 
3 | GST-Rho5 (enzyme) MTTELRRKLVIVGDGACGKTCLLIVFSKGTFPEVYVPTVFENYVADVEVDGRHIELALWDTAGQEDYDRLRPLSYPDSHVVLICFSVDAPESLDNVQEKWISEVLHFCSNLPILLVGCKVDLRNDPKTIEELSKTSQKPITFEEGQVVAQKIGAYKYLECSAKLNEGVNEVFETAARASMLKFKPASVPKTKKKKHCILL | binds | binds |  | 
4 | B1 |  |  | binds | 
5 | B2 |  |  |  | ~35
